According to the supplement of paper PMC9732359:
± gives the uncertainty stated by the source.

Experiment: protein stability index of a GFP-peptide fusion (yeast GPS) (PSI 1-4); higher = more stable; sorted into four equal gates, so the index is relative within each strain
How it was run: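 Tiled 17-residue peptides from yeast proteins were fused downstream of GFP on a plasmid that also expresses Cherry, and the pooled library was carried in yeast. Mid-log cultures grown in leucine-free medium were sorted into four equal gates by GFP/Cherry fluorescence ratio. Plasmids from each gate were PCR-amplified and Illumina-sequenced, and reads were assigned to strains by barcodes. Each peptide's protein stability index is the sum, over gates, of the gate's read frequency multiplied by its gate number.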

Row | Sequence | protein stability index (doa10∆) | protein stability index (pdr5∆) | protein stability index (ubr1∆) | protein stability index (san1∆)
1 | DPPKGILLYGPPGTGKT [RPT1] | 2.94 ± 0.28 | 2.71 ± 0.28 | 3.23 ± 0.17 | 
2 | QQQQQQNGQQPPTTSNL [YML103C/NUP188] | 2.502 ± 0.02 | 2.737 ± 0.022 | 2.661 ± 0.02 | 2.617 ± 0.019
3 | NLMILNTKVPVDIVNQW [YML103C/NUP188] | 1.68 ± 0.071 | 2.12 ± 0.084 | 2.08 ± 0.055 | 1.84 ± 0.13
4 | GAASNRTKFVRSLVREI [RPL36A] | 3.22 ± 0.27 | 2.59 ± 0.25 | 3.25 ± 0.12 | 3.02 ± 0.13
5 | LLVPLALLTKRLYPHWD [CSN12] | 2.33 ± 0.066 | 2.01 ± 0.063 | 1.5 ± 0.037 | 1.83 ± 0.092
6 | NELLEMVGLASGNDSMA [BRR2] | 2.59 ± 0.094 | 2.1 ± 0.072 | 2.32 ± 0.057 | 3.11 ± 0.077
7 | AEKLGSKKAEKTGTKPA [RPL4A] | 3.14 ± 0.067 | 3.08 ± 0.07 | 3.06 ± 0.072 | 3.13 ± 0.05
8 | TLDYAERHGYIRGIVKQ [RPL2A] | 1.71 ± 0.06 | 1.71 ± 0.083 | 1.8 ± 0.051 | 1.71 ± 0.079
9 | VLFITPDIVGHEFTLSF [BRR2] | 1.87 ± 0.049 | 2.29 ± 0.049 | 2.3 ± 0.04 | 2.18 ± 0.055
10 | GSVLLTLLNFVSNNVLR [ECM29] | 1.43 ± 0.054 | 1.31 ± 0.059 | 2.03 ± 0.073 | 1.67 ± 0.1
11 | IACVLTVINEQQREAVR [RPL35A] | 1.73 ± 0.057 | 2.12 ± 0.068 | 2.23 ± 0.066 | 2.18 ± 0.08
12 | HYGNEHIRRMVPLAMGI [RPN1] | 1.29 ± 0.082 | 1.33 ± 0.064 | 1.47 ± 0.065 | 1.24 ± 0.091
13 | MAKFLKAGKVAVVVRGR [RPL27A] | 1.53 ± 0.093 | 1.67 ± 0.057 | 1.54 ± 0.092 | 1.57 ± 0.14
14 | SFLKEGDLLNAEVQSLF [RRP4] | 2.57 ± 0.058 | 3.03 ± 0.091 | 2.8 ± 0.067 | 3.04 ± 0.059
15 | IRPLSKPMTAYARADTH [RRP6] | 2.74 ± 0.08 | 2.9 ± 0.083 | 2.89 ± 0.14 | 2.8 ± 0.065
16 | MSSNTSSVMSSPRVEKR [YOR098C/NUP1] | 3.18 ± 0.084 | 3.18 ± 0.093 | 3.01 ± 0.088 | 3.15 ± 0.078
17 | GPANNPNEFMQFKSKEV [PRP8] | 3.1 ± 0.11 | 3.31 ± 0.083 | 3.43 ± 0.11 | 3.19 ± 0.044
18 | LTNEDPPGLMYLKAFDK [SSN2] |  | 2.61 ± 0.26 | 3.22 ± 0.13 | 
19 | NEKRYATASAIAATAVA [RPL4A] | 2.29 ± 0.087 | 1.53 ± 0.056 | 1.5 ± 0.066 | 1.74 ± 0.14
20 | VLCLTRSSYMLELVNTP [YCG1] | 1.58 ± 0.059 | 2.03 ± 0.2 | 1.98 ± 0.087 | 1.77 ± 0.099
21 | SNGSGIVAAGGGSGAAT [CSL4] | 3.53 ± 0.12 | 3.53 ± 0.18 | 3.48 ± 0.11 | 3.45 ± 0.11
22 | ASHNVRRIPKRMRNRAL [POP1] | 2.11 ± 0.16 | 2.34 ± 0.058 | 2.07 ± 0.25 | 
23 | ARDLATMTYEEVAKRLV [FAS1] | 2.94 ± 0.11 | 3.3 ± 0.082 | 3.02 ± 0.073 | 3.12 ± 0.13
24 | NEEAEARRLKNRAARDR [RPL19A] | 3.16 ± 0.13 | 3.32 ± 0.087 | 3.33 ± 0.062 | 2.89 ± 0.19
25 | NNIRQAICRYANVIKAL [RRP4] | 1.41 ± 0.11 | 1.36 ± 0.07 | 1.43 ± 0.14 | 1.17 ± 0.14
26 | TGITKKDEDEEADEDMK [PRE9] | 3.09 ± 0.057 | 3.3 ± 0.074 | 3.07 ± 0.061 | 3.06 ± 0.064
27 | PKFGVEGLIRLDNLTED [DIS3] | 2.97 ± 0.074 | 2.86 ± 0.068 | 3.07 ± 0.038 | 3.08 ± 0.043

Row | Sequence | protein stability index (doa10∆) | protein stability index (pdr5∆) | protein stability index (ubr1∆) | protein stability index (san1∆)
28 | VTQQKRSLDENRLEIKY [SMC1] | 2.06 ± 0.064 | 2.15 ± 0.096 | 2.08 ± 0.062 | 2.12 ± 0.16
29 | PLAPAPINLPPQIAQLP [SNF5] | 1.8 ± 0.079 | 2.09 ± 0.064 | 1.97 ± 0.061 | 1.88 ± 0.12
30 | EAKERYTDRDQDEVNKG [NNF1] | 3.26 ± 0.15 | 3.28 ± 0.13 | 3.74 ± 0.11 | 3.3 ± 0.22
31 | VNSIALFVGTDRQLHEI [RPN14] | 2.43 ± 0.079 | 2.46 ± 0.065 | 2.67 ± 0.074 | 2.25 ± 0.067
32 | GNPTNISSPIVANSPNK [YDL088C/ASM4] | 1.3 ± 0.13 | 2.06 ± 0.14 | 1.82 ± 0.1 | 
33 | MTTPQNISSSQQLLPAP [DSN1] | 2.82 ± 0.049 | 2.89 ± 0.04 | 2.81 ± 0.038 | 2.74 ± 0.036
34 | LDENKWYKFNDDKVSVV [UBP6] | 2.87 ± 0.12 | 3.06 ± 0.091 | 2.97 ± 0.081 | 3.06 ± 0.1
35 | PHDLIIGTADIFIRQLK [BRR2] | 2.11 ± 0.057 | 2.51 ± 0.069 | 2.49 ± 0.052 | 2.27 ± 0.073
36 | SDEKKDGDASKPAFSFG [YJL041W/NSP1] | 3.24 ± 0.092 | 2.64 ± 0.23 | 3.23 ± 0.1 | 3.25 ± 0.056
37 | KIAYRGVKDCQEGLITT [SSN2] | 2.08 ± 0.23 |  | 2.7 ± 0.22 | 2.91 ± 0.22
38 | SNSALFRAVGEGNAQLV [FAS1] | 2.15 ± 0.11 | 2.37 ± 0.11 | 1.94 ± 0.09 | 2.27 ± 0.096
39 | AKCNSLLQLKYFSNKTS [POP5] | 1.84 ± 0.076 | 2.09 ± 0.055 | 2.2 ± 0.08 | 1.8 ± 0.1
40 | HKKKRSNAAGADDAISM [SRB8] | 3.06 ± 0.11 | 2.45 ± 0.067 | 2.75 ± 0.054 | 2.83 ± 0.18
41 | PAQKDSSVVSEPKKPSF [YOR098C/NUP1] | 2.94 ± 0.061 | 2.71 ± 0.05 | 2.89 ± 0.042 | 2.3 ± 0.076
42 | ETFISSMTATADVLAMA [RIP1] | 1.93 ± 0.11 | 2.48 ± 0.097 | 1.44 ± 0.054 | 3.13 ± 0.077
43 | KELTRIPGEEVEETEVP [MED4] | 3.21 ± 0.16 | 3.23 ± 0.21 |  | 3.02 ± 0.13
44 | VHMYHKSLALLGYNFDG [SNF5] | 2.26 ± 0.059 | 1.78 ± 0.046 | 2.02 ± 0.05 | 2.02 ± 0.08
45 | IRARIPFYGSYTETDPA [SRP54] | 2.96 ± 0.092 | 2.91 ± 0.082 | 2.96 ± 0.076 | 2.98 ± 0.06
46 | DELDQEILNLSTQELQT [RPT5] | 3.21 ± 0.084 | 3.15 ± 0.09 | 3.13 ± 0.078 | 3.14 ± 0.06
47 | ILDSLPSVIHSSVEMLL [YDL116W/NUP84] | 1.97 ± 0.055 | 1.44 ± 0.056 | 1.44 ± 0.041 | 1.39 ± 0.084
48 | EILTNQQRGITYLNEVL [YGR119C/NUP57] | 2.7 ± 0.068 | 3.09 ± 0.079 | 2.71 ± 0.066 | 3.12 ± 0.061
49 | LMCLSSKYCEKSLPLLI [YCS4] | 2.45 ± 0.1 | 2.71 ± 0.076 | 2.39 ± 0.052 | 2.39 ± 0.089
50 | EKIMILLVPLALLTKRL [CSN12] | 1.95 ± 0.045 | 1.47 ± 0.04 | 1.3 ± 0.03 | 1.33 ± 0.069
51 | KAKAQAQAQAQAQAQVY [PGD1] | 2.96 ± 0.11 | 3.26 ± 0.088 | 3 ± 0.066 | 3.04 ± 0.083
52 | RDVMCTDGVIGSRTTTN [RPO31] | 3.2 ± 0.11 | 3.48 ± 0.084 | 3.16 ± 0.052 | 3.16 ± 0.084
53 | VFLLTTRAGGLGINLVT [ISW2] | 1.69 ± 0.076 | 1.7 ± 0.063 | 1.4 ± 0.13 | 1.56 ± 0.13
